The numbers were not newly measured in publication PMC7252266, which cites them from elsewhere.

This data set concerns the target UROD (Homo sapiens) (UniProt P06132).

Consider UROD (from UniProt P06132), for which the Kd is 0.1 µM.

As usually defined, the Kd is a measure of binding affinity in units of concentration.
